T1: PREX2_2, Q70Z35
T1 sequence (Q70Z35 672-764, limits assumed, looked up): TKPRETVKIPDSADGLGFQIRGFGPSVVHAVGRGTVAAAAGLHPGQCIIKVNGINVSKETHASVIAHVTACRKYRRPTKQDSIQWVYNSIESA

T2: PARD6B, Q9BYG5
T2 sequence (Q9BYG5 152-260, limits assumed, looked up): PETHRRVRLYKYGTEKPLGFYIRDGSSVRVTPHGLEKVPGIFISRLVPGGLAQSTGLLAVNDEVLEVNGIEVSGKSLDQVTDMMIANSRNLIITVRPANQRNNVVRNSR

T3: MPDZ_13, O75970
T3 sequence (O75970 1982-2070, limits assumed, looked up): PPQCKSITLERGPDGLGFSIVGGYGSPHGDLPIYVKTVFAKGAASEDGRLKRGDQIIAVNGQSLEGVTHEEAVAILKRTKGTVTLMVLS

T4: PDZD2_5, O15018
T4 sequence (O15018 2617-2716, limits assumed, looked up): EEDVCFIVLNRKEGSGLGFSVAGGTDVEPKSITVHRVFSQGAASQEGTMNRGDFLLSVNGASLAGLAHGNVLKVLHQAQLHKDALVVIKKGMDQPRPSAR

T5: MPDZ_2, O75970
T5 sequence (O75970 252-347, limits assumed, looked up): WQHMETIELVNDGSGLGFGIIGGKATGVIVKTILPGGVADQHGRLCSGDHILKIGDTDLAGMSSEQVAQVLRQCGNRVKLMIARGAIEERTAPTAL

T6: PDZD8, Q8NEN9
T6 sequence (Q8NEN9 361-459, limits assumed, looked up): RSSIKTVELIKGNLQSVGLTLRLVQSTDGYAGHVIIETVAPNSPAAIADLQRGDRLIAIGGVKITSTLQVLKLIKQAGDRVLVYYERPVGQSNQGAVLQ

T7: PDZD2_6, O15018
T7 sequence (O15018 2745-2839, limits assumed, looked up): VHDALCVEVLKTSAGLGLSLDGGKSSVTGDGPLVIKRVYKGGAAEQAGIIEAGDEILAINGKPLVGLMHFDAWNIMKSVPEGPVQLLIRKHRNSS

T8: MPP5, Q8N3R9
T8 sequence (Q8N3R9 251-346, limits assumed, looked up): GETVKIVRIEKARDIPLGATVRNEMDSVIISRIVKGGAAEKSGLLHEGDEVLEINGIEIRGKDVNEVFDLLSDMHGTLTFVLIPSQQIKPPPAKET

T9: USH1C_3, Q9Y6N9
T9 sequence (Q9Y6N9 447-547, limits assumed, looked up): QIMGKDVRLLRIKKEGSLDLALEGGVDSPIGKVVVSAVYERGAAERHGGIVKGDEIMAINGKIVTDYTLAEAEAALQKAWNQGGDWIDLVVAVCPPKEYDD

T10: SNTB2, Q13425
T10 sequence (Q13425 110-208, limits assumed, looked up): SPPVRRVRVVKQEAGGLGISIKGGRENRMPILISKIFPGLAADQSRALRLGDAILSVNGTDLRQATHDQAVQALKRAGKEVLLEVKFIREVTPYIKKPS

T11: PDZD11, Q5EBL8
T11 sequence (Q5EBL8 42-139, limits assumed, looked up): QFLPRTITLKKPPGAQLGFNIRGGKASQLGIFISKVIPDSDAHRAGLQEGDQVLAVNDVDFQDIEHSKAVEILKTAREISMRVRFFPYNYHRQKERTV

T12: PDZD7_1, Q9H5P4
T12 sequence (Q9H5P4 81-178, limits assumed, looked up): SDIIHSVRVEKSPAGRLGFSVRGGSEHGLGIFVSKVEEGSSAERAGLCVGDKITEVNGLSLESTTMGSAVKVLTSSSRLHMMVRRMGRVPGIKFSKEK


How the values were obtained:
Assay in all cases: holdup assay
Parameters in all cases: key: below the threshold = too weak to quantify, mostly under pKd 3.1 to 4
Conditions in all cases: plain residues with an end cap or a label only (N-terminal biotin on a linker: ttds)
[1] = biological target: T1, PREX2_2, Q70Z35
[2] = biological target: Q9NR12
[3] = biological target: T2, PARD6B, Q9BYG5
[4] = biological target: Q9UDY2
[5] = biological target: Q96SB3
[6] = biological target: T3, MPDZ_13, O75970
[7] = biological target: T4, PDZD2_5, O15018
[8] = biological target: O43166
[9] = biological target: MAGI1_6, Q96QZ7
Chain of MAGI1_6, Q96QZ7 (Q96QZ7 1146-1238): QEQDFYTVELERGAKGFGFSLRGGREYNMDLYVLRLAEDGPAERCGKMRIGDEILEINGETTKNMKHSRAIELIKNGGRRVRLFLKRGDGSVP

[10] = biological target: T5, MPDZ_2, O75970
[11] = biological target: T6, PDZD8, Q8NEN9
[12] = biological target: PDLIM4, P50479
Chain of PDLIM4, P50479 (P50479 1-83): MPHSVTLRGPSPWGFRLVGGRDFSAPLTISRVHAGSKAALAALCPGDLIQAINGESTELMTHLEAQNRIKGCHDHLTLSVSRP

[13] = biological target: AHNAK2, Q8IVF2
Chain of AHNAK2, Q8IVF2 (Q8IVF2 108-193): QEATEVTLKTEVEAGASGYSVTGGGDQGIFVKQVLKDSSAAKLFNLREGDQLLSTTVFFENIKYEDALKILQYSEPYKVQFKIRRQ

[14] = biological target: LMO7, Q8WWI1
Chain of LMO7, Q8WWI1 (Q8WWI1 1037-1138): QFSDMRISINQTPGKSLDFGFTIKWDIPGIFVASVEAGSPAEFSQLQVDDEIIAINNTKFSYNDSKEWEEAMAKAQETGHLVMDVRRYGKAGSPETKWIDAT

[15] = biological target: NHERF2_1, Q15599
Chain of NHERF2_1, Q15599 (Q15599 9-91): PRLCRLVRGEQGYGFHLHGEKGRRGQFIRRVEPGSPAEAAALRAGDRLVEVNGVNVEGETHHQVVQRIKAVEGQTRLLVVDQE

[16] = biological target: T7, PDZD2_6, O15018
[17] = biological target: T8, MPP5, Q8N3R9
[18] = biological target: T9, USH1C_3, Q9Y6N9
[19] = biological target: CARD14, Q9BXL6
Chain of CARD14, Q9BXL6 (Q9BXL6 558-663): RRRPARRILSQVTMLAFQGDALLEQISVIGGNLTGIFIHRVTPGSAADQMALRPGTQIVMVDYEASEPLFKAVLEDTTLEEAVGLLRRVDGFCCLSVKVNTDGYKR

[20] = biological target: T10, SNTB2, Q13425
[21] = biological target: T11, PDZD11, Q5EBL8
[22] = biological target: DLG5_2, Q8TDM6
Chain of DLG5_2, Q8TDM6 (Q8TDM6 714-800): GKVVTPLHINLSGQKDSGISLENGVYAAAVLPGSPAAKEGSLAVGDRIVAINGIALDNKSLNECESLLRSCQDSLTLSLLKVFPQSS

[23] = biological target: T12, PDZD7_1, Q9H5P4
[24] = biological target: O00233
[25] = biological target: O60759
[26] = biological target: SDCBP_1, O00560
Chain of SDCBP_1, O00560 (O00560 111-198): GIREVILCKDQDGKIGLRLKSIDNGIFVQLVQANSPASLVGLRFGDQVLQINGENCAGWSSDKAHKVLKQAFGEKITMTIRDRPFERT

[27] = biological target: Q5TCQ9

Binder | pKd [1] | pKd [3] | pKd [6] | pKd [7] | pKd [9] | pKd [10] | pKd [11] | pKd [12] | pKd [13] | pKd [14] | pKd [15] | pKd [16] | pKd [17] | pKd [18] | pKd [19] | pKd [20] | pKd [21] | pKd [22] | pKd [23] | pKd [26] | also measured
SVWLRKETRV [CYSLTR2, Q9NS75] | below the threshold | below the threshold | below the threshold | below the threshold | below the threshold | below the threshold | below the threshold | below the threshold | below the threshold | below the threshold | below the threshold | below the threshold | below the threshold | below the threshold | below the threshold | 5.14 | below the threshold | 4.71 | below the threshold | below the threshold | pKd [2]: below the threshold; pKd [4]: below the threshold; pKd [5]: below the threshold; pKd [8]: below the threshold; pKd [24]: below the threshold; pKd [25]: below the threshold; pKd [27]: below the threshold
RSLEEEESQL [GRASP, Q7Z6J2] | below the threshold | below the threshold | below the threshold | 4.22 | below the threshold | below the threshold | below the threshold | below the threshold | 4.3 | 4.14 | below the threshold | below the threshold | below the threshold | below the threshold | below the threshold | below the threshold | below the threshold | below the threshold | below the threshold | below the threshold | pKd [2]: below the threshold; pKd [4]: below the threshold; pKd [5]: below the threshold; pKd [8]: below the threshold; pKd [24]: below the threshold; pKd [25]: below the threshold; pKd [27]: below the threshold
SRPQRTQTQV [HPV67-E6, A4U7F2] | below the threshold | below the threshold | below the threshold | below the threshold | below the threshold | below the threshold | below the threshold | below the threshold | below the threshold | – | below the threshold | below the threshold | below the threshold | – | below the threshold | below the threshold | below the threshold | 4.16 | below the threshold | below the threshold | –
SSRTRRETQL [HPV16-E6, P03126] | below the threshold | below the threshold | below the threshold | below the threshold | below the threshold | below the threshold | below the threshold | below the threshold | below the threshold | 4.15 | below the threshold | below the threshold | below the threshold | below the threshold | below the threshold | 4.12 | below the threshold | 4.12 | below the threshold | below the threshold | –

From PMC9482650, “Quantitative fragmentomics allow affinity mapping of interactomes” (Nature Communications, 2022)
